Experimental data reported in patent US20010029035A1, “Oligonucleotide conjugates” (priority 2000, published 2001).

Legend:
[1] = in vivo; cited from earlier work
[2] = tested on: SSTR-positive CA20948 pancreas tumors; experiment: Organ distribution study in CA 20948 tumor-bearing Lewis rats; settings: rat, in vivo
Experimental: As explained in more detail below, PNA peptide conjugates were synthesized by means of Boc chemistry.
Organ distribution studies of the conjugate were carried out with tumor-bearing rats. […] The tumor cells are thawed, washed with PBS and suspended carefully. The cell suspension was transplanted subcutaneously into the flank of male Lewis rats (220-250 g) (about 2×10^6 cells in 0.1 ml). […] After 1 hour, the animals were killed and dissected. Various organs/tissue samples (tumor, blood, heart, lung, liver, stomach, kidney, spleen, muscle) were removed, weighed and the activity in the gamma counter was determined. In this way, % ID/g values could be obtained. The competitive uptake could be examined by injection of 100 μg octreotide, 30 min. prior to the application of the radioactive octreotide derivative.

Structure (SMILES)	biological half-life [1]	organ distribution compared with 3-Tyr octreotide (in words) [2]	uptake into the tumor tissue (in words) [2]
C[C@@H](O)[C@@H]1NC(=O)[C@H](CCCCN)NC(=O)[C@@H](Cc2c[nH]c3ccccc23)NC(=O)[C@H](Cc2ccccc2)NC(=O)[C@@H](NC(=O)[C@H](N)Cc2ccccc2)CSSC[C@@H](C(=O)N[C@H](CO)[C@@H](C)O)NC1=O [Octreotide]	about 90 min.		
Cc1cn(CC(=O)N(CCNC(=O)CN(CCNC(=O)CN(CCNC(=O)CN(CCNC(=O)CN(CCNC(=O)CN(CCNC(=O)CN(CCNC(=O)CN(CCNC(=O)CN(CCNC(=O)CN(CCNC(=O)CN(CCNC(=O)CN(CCNC(=O)[C@@H](N)Cc2ccc(O)c(I)c2)C(=O)Cn2cnc3c(N)ncnc32)C(=O)Cn2cnc3c(=O)[nH]c(N)nc32)C(=O)Cn2ccc(N)nc2=O)C(=O)Cn2cnc3c(=O)[nH]c(N)nc32)C(=O)Cn2cc(C)c(=O)[nH]c2=O)C(=O)Cn2cnc3c(=O)[nH]c(N)nc32)C(=O)Cn2ccc(N)nc2=O)C(=O)Cn2cnc3c(=O)[nH]c(N)nc32)C(=O)Cn2ccc(N)nc2=O)C(=O)Cn2ccc(N)nc2=O)C(=O)Cn2cnc3c(N)ncnc32)CC(=O)NCCN(CC(=O)NCCN(CC(=O)NCCN(CC(=O)N[C@H](Cc2ccccc2)C(=O)N[C@H]2CSSC[C@@H](C(=O)N[C@H](C(=O)O)[C@@H](C)O)NC(=O)[C@H]([C@@H](C)O)NC(=O)[C@H](CCCCN)NC(=O)[C@@H](Cc3c[nH]c4ccccc34)NC(=O)[C@H](Cc3ccccc3)NC2=O)C(=O)Cn2ccc(N)nc2=O)C(=O)Cn2ccc(N)nc2=O)C(=O)Cn2ccc(N)nc2=O)c(=O)[nH]c1=O [PNA conjugate]		approximately the same concentration in tumor and pancreas	selective uptake, which could be inhibited with an excess of octreotide
